{"source": "patent US7795390B2", "about": "“Biological substance nesfatin and its related substances and uses thereof” (Teijin Pharma Limited, priority 2005, dated 2010)", "molecules": {"B1": {"name": "nesfatin-1: 82-residue peptide, amino acid Nos. 25 to 106 of nesfatin (SEQ ID NO: 15), solid-phase synthesis (peptide, listed as Rattus norvegicus)", "chain": "VPIDVDKTKVHNVEPVESARIEPPDTGLYYDEYLKQVIEVLETDPHFREKLQKADIEEIRSGRLSQELDLVSHKVRTRLDEL"}}, "key": {"[1]": {"test_system": "mice", "assay": "Intraperitoneal and subcutaneous administration of nesfatin-1 to mice, food intake", "assay_type": "in vivo, mouse", "experimental": "The sample used in the administration was the recombinant mouse nesfatin-1 prepared in Working Example 16 dissolved in 200 μl of physiological saline so as to contain 10 nmol, and as the control sample, physiological saline (Saline) alone was used. Using a tuberculin syringe equipped with a 25G needle, 200 μl each of the samples was administered once into the abdominal cavity or the hypodermis of the back of each mouse, and the time of administration was immediately before the start (6 p.m.) of the dark period. Other conditions were similar to those in Working Example 18."}, "[2]": {"test_system": "rats", "assay": "Continuous administration of nesfatin-1 into the rat ventricle, weight of adipose tissue", "assay_type": "in vivo", "settings": "5 pmol per day, third ventricle, 10 days; vs saline", "experimental": "Nesfatin-1 (5 pmol per day) or physiological saline alone (the control group) was administered into the third ventricle of a rat using an osmotic pump for 10 consecutive days (5 and 4 rats were used per group). Intraventricular administration into rats by the osmotic pump was carried out in a manner similar to that in Working Example 13.\nAfter the administration of nesfatin-1 or physiological saline alone for 10 days, each rat was sacrificed, dissected to excise all of the abdominal subcutaneous adipose tissue, the epididymal adipose tissue (these are white adipose tissue) and the retroperitoneal brown adipose tissue, and the weight of them was measured. Also, the gastrocnemial muscles of the bilateral hind legs were harvested and the weight of them was measured. From the weight of the tissues measured, their ratio to the body weight of each individual was determined (tissue weight/body weight, mg/g). For testing of significant difference, analysis of variance was used."}, "[3]": {"test_system": "C57BL/6J mice", "assay": "Intraperitoneal administration of nesfatin-1 to c57BL/6J mice, food intake and blood biochemical parameters", "assay_type": "in vivo", "settings": "recombinant mouse nesfatin-1 10 nmol ip; 0-3 hours; vs saline", "experimental": "As experimental animals, 7 week-old male c57BL/6J mice were purchased from Nippon Clea, and were housed in a cycle of 12 hours of the light period from 6 a.m. to 6 p.m. and […] of the dark period from 6 p.m. to 6 a.m. the next morning and were allowed free access to a pellet food (Nippon Clea, CE-2), and kept at 22° C.\nInto the abdominal cavity of the c57BL/6J mice, 10 nmol of recombinant mouse nesfatin-1 prepared in Working Example 16 dissolved in 100 μl of physiological saline was administered, and as the control sample physiological saline alone was used. Using a tuberculin syringe equipped with a 26G needle, 100 μl each of the sample was administered once into the abdominal cavity of each mouse (5 animals per group), and the time of administration was immediately before the start (6 p.m.) of the dark period.\nEach mouse that received administration was placed in an individual cage, and during 0-3 hours after the administration the weight decreased of the pellet food was measured to determine the amount of food intake. Also, 3 hours after the administration each mouse was sacrificed by decapitation to collect whole blood, and serum was collected therefrom. For the serum, the contents of glucose, total cholesterol and triglyceride were measured using commercial reagents for determination (KYOWA MEDEX, Determiner L GLUII, Determiner L TCII, Determiner L TGII)."}, "[4]": {"test_system": "Wistar rats", "assay": "Intraventricular continuous administration of nesfatin-1 by osmotic pump, food intake and body weight", "assay_type": "in vivo, rat", "experimental": "The administration of nesfatin-1 was carried out into the ventricle by an osmotic pump for 10 consecutive days. Among 8 week-old male Wistar rats (purchased from Nippon SLC), those individuals weighing 200-250 g were used. The rats received intraperitoneal administration of 40 mg/kg body weight of pentobarbital sodium for anesthesia. After the hair was removed from the head, they were fixed in a brain stereotaxic apparatus (David Kopf Instruments, Model 962) and the scalp was incised and a 23G needle (guide cannula) was implanted so that the tip reaches the third ventricle (2.5 mm behind the bregma, 9.5 mm from the surface). One week after implanting the guide cannula, the animals were subjected to the experiment. The osmotic pump used was Alzet's Model 2002. Nesfatin-1 (nesfatin-1 administration group) dissolved in physiological saline that was filter-sterilized with a 0.22 μm Millex GV filter (Millpore Co. Ltd.), or sterilized physiological saline alone (control group) were injected into the osmotic pump immediately before use, and were primed in sterilized physiological saline from the day before use. The osmotic pump to which each sample was connected to a tube connected to the injection cannula, and through the guide cannula previously implanted the injection cannula was fixed so that the tip of the cannula reaches the third ventricle of the rat. In this form of use, the sample is injected to the third ventricle at a flow rate of 12 μl per 24 hours, and in the nesfatin-1 administration group, it is equivalent to 5 pmol of nesfatin-1 per day administered to the ventricle. […] The measurement of the amount of food intake started from the day after the cannula and the osmotic pump were implanted, and the weight of the residual food was measured at 9 a.m. every day, and by determining the difference from the weight of the food on the previous day, the amount of food intake of the day (24 hours) was calculated. From day 6 after the start of administration, body weight was measured at the time of measuring the amount of food intake, and changes in body weight were also recorded."}, "[5]": {"settings": "5 pmol per day, osmotic pump, third ventricle, 10 consecutive days, vs saline"}}}
{"molecule": "B1", "values": [{"measurement": "amount of food intake", "setting": "[1]; 10 nmol intraperitoneally (ip), 0-3 hours, P<0.05 vs saline", "value": "statistically significant decrease"}, {"measurement": "amount of food intake", "setting": "[1]; 10 nmol intraperitoneally (ip), 0-14 hours", "value": "the decrease in the amount of food intake was not significant"}, {"measurement": "amount of food intake", "setting": "[1]; 10 nmol subcutaneously (sc), 0-3 hours", "value": "tended to decrease"}, {"measurement": "amount of food intake", "setting": "[1]; 10 nmol subcutaneously (sc), 0-14 hours, P<0.005 vs saline", "value": "the decrease was significant"}, {"measurement": "ratio of tissue weight to body weight, abdominal subcutaneous adipose tissue", "setting": "[2]", "value": "significant decreases"}, {"measurement": "ratio of tissue weight to body weight, brown adipose tissue", "setting": "[2]", "value": "no significant difference"}, {"measurement": "ratio of tissue weight to body weight, epididymal adipose tissue", "setting": "[2]", "value": "significant decreases"}, {"measurement": "ratio of tissue weight to body weight, gastrocnemial muscle", "setting": "[2]", "value": "no significant difference"}, {"measurement": "ratio of tissue weight to body weight, mesenteric adipose tissue", "setting": "[2]", "value": "significant decreases"}, {"measurement": "ratio of tissue weight to body weight, retroperitoneal adipose tissue", "setting": "[2]", "value": "tended to decrease but no significant difference"}, {"measurement": "amount of food intake", "setting": "[3]", "value": "significantly reduced"}, {"measurement": "amount of food intake of the day (24 hours)", "setting": "[4]; [5]", "value": "a decrease in the amount of food intake was noted from day 1"}, {"measurement": "rate of increase in body weight", "setting": "[4]; [5]", "value": "significantly declined"}, {"measurement": "food intake and/or body weight gain", "setting": "[4]; recombinant highly purified nesfatin-1 (Working Example 16), intraventricular as in Working Example 13", "value": "the effect of suppressing food intake and/or suppressing body weight gain was noted"}]}
